Measured values reported in the supplement of paper PMC5998384.

Assays:
HeLa Kyoto [1] = assay: thermal stability score vs G1/S (z-score of summed log2 fold changes over temperatures); higher = more thermally stable than in G1/S
HeLa Kyoto [2] = assay: solubility in G1/S (NP-40 vs SDS abundance) (log2 ratio); higher = more soluble; settings: cell cycle stage: G1/S
HeLa Kyoto [3] = assay: solubility change mitosis vs G1/S (difference of NP-40 vs SDS log2 ratios) (log2 ratio difference); higher = more soluble in mitosis
HeLa Kyoto [4] = assay: melting temperature (median over replicates), in situ; higher = more thermally stable
[5] = cell cycle stage: early G1 (4.5 h after nocodazole release)
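Throughout, for melting temperature (median over replicates), in situ: HeLa Kyoto cells synchronized by double thymidine or nocodazole block, proteins quantified by TMT10plex mass spectrometry, three independent biological replicates.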
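Throughout, for solubility change mitosis vs G1/S (difference of NP-40 vs SDS log2 ratios): synchronized HeLa Kyoto cells (double thymidine block for G1/S, nocodazole release for mitosis), protein amounts in NP-40 versus SDS lysates quantified by mass spectrometry, three biological replicates.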
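Throughout, for solubility in G1/S (NP-40 vs SDS abundance): HeLa Kyoto cells arrested at G1/S by double thymidine block, proteins quantified by TMT10plex mass spectrometry in mild NP-40 versus SDS extracts, three biological replicates.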
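Throughout, for thermal stability score vs G1/S (z-score of summed log2 fold changes over temperatures): synchronized HeLa Kyoto cells, proteins quantified by TMT10plex mass spectrometry, three biological replicates, mitosis taken 0.5 h after nocodazole release, G1/S directly after double thymidine block.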

Sequence	thermal stability score (HeLa Kyoto [1]; [5])	thermal stability score (HeLa Kyoto [1]; cell cycle stage: mitosis)	solubility in G1/S (log2) (HeLa Kyoto [2])	solubility change mitosis (log2) (HeLa Kyoto [3])	melting temperature (HeLa Kyoto [4]; cell cycle stage: G1/S)	melting temperature (HeLa Kyoto [4]; cell cycle stage: mitosis)
MPAGPVQAVPPPPPVPTEPKQPTEEEASSKEDSAPSKPVVGIIYPPPEVRNIVDKTASFVARNGPEFEARIRQNEINNPKFNFLNPNDPYHAYYRHKVSEFKEGKAQEPSAAIPKVMQQQQQTTQQQLPQKVQAQVIQETIVPKEPPPEFEFIADPPSISAFDLDVVKLTAQFVARNGRQFLTQLMQKEQRNYQFDFLRPQHSLFNYFTKLVEQYTKILIPPKGLFSKLKKEAENPREVLDQVCYRVEWAKFQERERKKEEEEKEKERVAYAQIDWHDFVVVETVDFQPNEQGNFPPPTTPEELGARILIQERYEKFGESEEVEMEVESDEEDDKQEKAEEPPSQLDQDTQVQDMDEGSDDEEEGQKVPPPPETPMPPPLPPTPDQVIVRKDYDPKASKPLPPAPAPDEYLVSPITGEKIPASKMQEHMRIGLLDPRWLEQRDRSIREKQSDDEVYAPGLDIESSLKQLAERRTDIFGVEETAIGKKIGEEEIQKPEEKVTWDGHSGSMARTQQAAQANITLQEQIEAIHKAKGLVPEDDTKEKIGPSKPNEIPQQPPPPSSATNIPSSAPPITSVPRPPTMPPPVRTTVVSAVPVMPRPPMASVVRLPPGSVIAPMPPIIHAPRINVVPMPPSAPPIMAPRPPPMIVPTAFVPAPPVAPVPAPAPMPPVHPPPPMEDEPTSKKLKTEDSLMPEEEFLRRNKGPVSIKVQVPNMQDKTEWKLNGQVLVFTLPLTDQVSVIKVKIHEATGMPAGKQKLQYEGIFIKDSNSLAYYNMANGAVIHLALKERGGRKK [SF3A1]	-0.95	1.92	-0.0723	0.18	49.8 °C	50.2 °C
MPALPLDQLQITHKDPKTGKLRTSPALHPEQKADRYFVLYKPPPKDNIPALVEEYLERATFVANDLDWLLALPHDKFWCQVIFDETLQKCLDSYLRYVPRKFDEGVASAPEVVDMQKRLHRSVFLTFLRMSTHKESKDHFISPSAFGEILYNNFLFDIPKILDLCVLFGKGNSPLLQKMIGNIFTQQPSYYSDLDETLPTILQVFSNILQHCGLQGDGANTTPQKLEERGRLTPSDMPLLELKDIVLYLCDTCTTLWAFLDIFPLACQTFQKHDFCYRLASFYEAAIPEMESAIKKRRLEDSKLLGDLWQRLSHSRKKLMEIFHIILNQICLLPILESSCDNIQGFIEEFLQIFSSLLQEKRFLRDYDALFPVAEDISLLQQASSVLDETRTAYILQAVESAWEGVDRRKATDAKDPSVIEEPNGEPNGVTVTAEAVSQASSHPENSEEEECMGAAAAVGPAMCGVELDSLISQVKDLLPDLGEGFILACLEYYHYDPEQVINNILEERLAPTLSQLDRNLDREMKPDPTPLLTSRHNVFQNDEFDVFSRDSVDLSRVHKGKSTRKEENTRSLLNDKRAVAAQRQRYEQYSVVVEEVPLQPGESLPYHSVYYEDEYDDTYDGNQVGANDADSDDELISRRPFTIPQVLRTKVPREGQEEDDDDEEDDADEEAPKPDHFVQDPAVLREKAEARRMAFLAKKGYRHDSSTAVAGSPRGHGQSRETTQERRKKEANKATRANHNRRTMADRKRSKGMIPS [ASCC2]	0.236	1.02	-0.248	0.0692	52.1 °C	49.5 °C
MPALSTGSGSDTGLYELLAALPAQLQPHVDSQEDLTFLWDMFGEKSLHSLVKIHEKLHYYEKQSPVPILHGAAALADDLAEELQNKPLNSEIRELLKLLSKPNVKALLSVHDTVAQKNYDPVLPPMPEDIDDEEDSVKIIRLVKNREPLGATIKKDEQTGAIIVARIMRGGAADRSGLIHVGDELREVNGIPVEDKRPEEIIQILAQSQGAITFKIIPGSKEETPSKEGKMFIKALFDYNPNEDKAIPCKEAGLSFKKGDILQIMSQDDATWWQAKHEADANPRAGLIPSKHFQERRLALRRPEILVQPLKVSNRKSSGFRKSFRLSRKDKKTNKSMYECKKSDQYDTADVPTYEEVTPYRRQTNEKYRLVVLVGPVGVGLNELKRKLLISDTQHYGVTVPHTTRARRSQESDGVEYIFISKHLFETDVQNNKFIEYGEYKNNYYGTSIDSVRSVLAKNKVCLLDVQPHTVKHLRTLEFKPYVIFIKPPSIERLRETRKNAKIISSRDDQGAAKPFTEEDFQEMIKSAQIMESQYGHLFDKIIINDDLTVAFNELKTTFDKLETETHWVPVSWLHS [MPP7]	0.55	1.76	-0.0584	0.00867	47.8 °C	48.5 °C
MPAPTQLFFPLIRNCELSRIYGTACYCHHKHLCCSSSYIPQSRLRYTPHPAYATFCRPKENWWQYTQGRRYASTPQKFYLTPPQVNSILKANEYSFKVPEFDGKNVSSILGFDSNQLPANAPIEDRRSAATCLQTRGMLLGVFDGHAGCACSQAVSERLFYYIAVSLLPHETLLEIENAVESGRALLPILQWHKHPNDYFSKEASKLYFNSLRTYWQELIDLNTGESTDIDVKEALINAFKRLDNDISLEAQVGDPNSFLNYLVLRVAFSGATACVAHVDGVDLHVANTGDSRAMLGVQEEDGSWSAVTLSNDHNAQNERELERLKLEHPKSEAKSVVKQDRLLGLLMPFRAFGDVKFKWSIDLQKRVIESGPDQLNDNEYTKFIPPNYHTPPYLTAEPEVTYHRLRPQDKFLVLATDGLWETMHRQDVVRIVGEYLTGMHHQQPIAVGGYKVTLGQMHGLLTERRTKMSSVFEDQNAATHLIRHAVGNNEFGTVDHERLSKMLSLPEELARMYRDDITIIVVQFNSHVVGAYQNQE [PDP1]	0.767	1.07	0.103	-0.0758	52.7 °C	51.6 °C
